Test results published in patent US7563583B2, “Heregulin variants” (Genentech, Inc., priority 1997, dated 2009).
Changes are numbered by the printed parent chain.

B1: N204: HRG-β1 variant with N204 mutated to alanine (protein, UniProt Q02297 1-640, looked up, variant N204A)
chain: MSERKEGRGKGKGKKKERGSGKKPESAAGSQSPALPPRLKEMKSQESAAGSKLVLRCETSSEYSSLRFKWFKNGNELNRKNKPQNIKIQKKPGKSELRINKASLADSGEYMCKVISKLGNDSASANITIVESNEIITGMPASTEGAYVSSESPIRISVSTEGANTSSSTSTSTTGTSHLVKCAEKEKTFCVNGGECFMVKDLSAPSRYLCKCQPGFTGARCTENVPMKVQNQEKAEELYQKRVLTITGICIALLVVGIMCVVAYCKTKKQRKKLHDRLRQSLRSERNNMMNIANGPHHPNPPPENVQLVNQYVSKNVISSEHIVEREAETSFSTSHYTSTAHHSTTVTQTPSHSWSNGHTESILSESHSVIVMSSVENSRHSSPTGGPRGRLNGTGGPRECNSFLRHARETPDSYRDSPHSERYVSAMTTPARMSPVDFHTPSSPKSPPSEMSPPVSSMTVSMPSMAVSPFMEEERPLLLVTPPRLREKKFDHHPQQFSSFHHNPAHDSNSLPASPLRIVEDEEYETTQEYEPAQEPVKKLANSRRAKRTKPNGHIANRLEVDSNTSSQSSNSESETEDERVGEDTPFLGIQNPLAASLEATPAFRLADSRTNPAGRFSTQEEIQARLSSVIANQDPIAV
B2: L209: HRG-β1 variant with L209 mutated to alanine (protein, UniProt Q02297 1-640, looked up, variant L209A)
chain: B1 chain with A204N, L209A
B3: S177: HRG-β1 variant with S177 mutated to alanine (protein)
chain: AHLVKCAEKEKTFCVNGGECFMVKDLSNPSRYLCKCPNEFTGDRCQNYVMASFYKHLGIEFMEAEELY
modifications: left off: large carriers
notes: HRG-β1 variant with S177 mutated to alanine
B4: F229: HRG-β1 variant with F229 mutated to alanine (protein)
chain: B3 chain with A1S, F53A
modifications: left off: large carriers; small tags and cut ends
notes: HRG-β1 variant with F229 mutated to alanine
B5: E215: HRG-β1 variant with E215 mutated to alanine (protein)
chain: B3 chain with A1S, E39A
modifications: left off: large carriers; small tags and cut ends
notes: HRG-β1 variant with E215 mutated to alanine
B6: P205: HRG-β1 variant with P205 mutated to alanine (protein)
chain: B3 chain with A1S, P29A
modifications: left off: large carriers; small tags and cut ends
notes: HRG-β1 variant with P205 mutated to alanine

Tested on: ErbB-3 or ErbB-4 receptors
Test: Alanine scan of the HRG-β1 EGF-like domain by phage ELISA (FIG. 2)
Assay type: binding
Details: ratio of variant EC50 to wild-type EC50
Experimental: The X axis lists each amino acid that was changed to alanine and its position. […] The EC50 was calculated as the concentration of soluble receptor fusion required to displace 50% of the total amount of phage bound to immobilized receptor fusion. ErbB-3 binding results are shown with black bars, and ErbB-4 binding results are shown with white bars.
Alanine-substituted variants were generated by site-directed mutagenesis according to Kunkel et al., Methods Enzymol. 154:367-82 (1987) (hereinafter “Kunkel mutagenesis”), using uracil-containing single-stranded DNA template prepared from pHRG2-g3. pHRG2-g3, which is described in Example 1, expressed HRG-β1 177-244 fused to pIII 247. A series of oligonucleotides was used to generate a series of constructs that expressed a series of variants in which consecutive residues were mutated to alanine. Phage stocks were prepared from these constructs as described in Example 1, except that PEG(8000) was used to precipitate the phage. The affinities of the alanine-substituted variants for ErbB-3-Ig and ErbB-4-Ig was determined by phage ELISA as described in Example 1.

Molecule	effect of substitution with alanine on affinity for the ErbB-3 or ErbB-4 receptors
B1	two
B2	two and five
B3	two and five
B4	two and five
B5	two
B6	two
